Measured values: paper PMC2872554 (Nature structural & molecular biology, 2010)

Columns and labels:
[1] = target: mouse E-cadherin EC1-2 Y142R (mouse); assay: AUC
[2] = target: mouse E-cadherin EC1-2 AA extension mutant (mouse); assay: AUC
[3] = target: mouse E-cadherin EC1-2 E89A (mouse); assay: AUC
[4] = target: mouse E-cadherin EC1-2 K14E (mouse); assay: AUC
[5] = target: mouse cadherin-6 EC1-2 W4A (mouse); assay: AUC
[6] = target: mouse E-cadherin EC1-2 W2A (mouse); assay: AUC
[7] = target: mouse cadherin-6 EC1-2 M188D (mouse); assay: AUC
[8] = target: C-terminally biotinylated mouse cadherin-6 EC1-2 M188D (mouse); assay: SPR
[9] = target: mouse E-cadherin EC1-2 fragment, wild type (mouse); assay: AUC
[10] = target: mouse E-cadherin EC1-2 K14S (mouse); assay: AUC
[11] = target: mouse cadherin-6 EC1-2 fragment, wild type (mouse); assay: AUC
crystal structure = target: the molecule itself; assay: crystal structure

## mouse E-cadherin EC1-2 Y142R (domain or fragment)
[1]
  Kd: 77.4 µM

## mouse E-cadherin EC1-2 AA extension mutant (domain or fragment)
[2]
  Kd: 811 µM

## mouse E-cadherin EC1-2 E89A (domain or fragment)
[3]
  Kd: 293 µM

## mouse E-cadherin EC1-2 K14E (domain or fragment)
[4]
  Kd: 117 µM

## mouse cadherin-6 EC1-2 W4A (domain or fragment)
[5]
  Kd: 321 µM

## mouse E-cadherin EC1-2 W2A (domain or fragment)
[6]
  Kd: 916 µM

## mouse cadherin-6 EC1-2 M188D (domain or fragment)
[7]
  Kd: 12.6 µM
[8]
  binding response: < 10 RU

## mouse E-cadherin EC1-2 fragment, wild type (domain or fragment)
[9]
  Kd: 98.6 µM

## mouse E-cadherin EC1-2 K14S (domain or fragment)
[10]
  Kd: 96 µM

## mouse cadherin-6 EC1-2 fragment, wild type (domain or fragment)
[11]
  Kd: 3.1 µM

B1: mouse N-cadherin EC1-2 fragment, wild type (domain or fragment)
chain: DWVIPPINLPENSRGPFPQELVRIRSDRDKNLSLRYSVTGPGADQPPTGIFIINPISGQLSVTKPLDRELIARFHLRAHAVDINGNQVENPIDIVINVIDMNDNRPEFLHQVWNGSVPEGSKPGTYVMTVTAIDADDPNALNGMLRYRILSQAPSTPSPNMFTINNETGDIITVAAGLDREKVQQYTLIIQATDMEGNPTYGLSNTATAVITVTD
Crystal structure
  binding result: binds
